Data published in PMC10401628.

Molecular target: human α-synuclein E57K mutant (6xHis:α-Syn-E57K) (human) (UniProt P37840)

Sequence of bacterial Hsp90 chaperone with C-terminal hexahistidine (Hsp90:6xHis) (P0A6Z3 whole entry): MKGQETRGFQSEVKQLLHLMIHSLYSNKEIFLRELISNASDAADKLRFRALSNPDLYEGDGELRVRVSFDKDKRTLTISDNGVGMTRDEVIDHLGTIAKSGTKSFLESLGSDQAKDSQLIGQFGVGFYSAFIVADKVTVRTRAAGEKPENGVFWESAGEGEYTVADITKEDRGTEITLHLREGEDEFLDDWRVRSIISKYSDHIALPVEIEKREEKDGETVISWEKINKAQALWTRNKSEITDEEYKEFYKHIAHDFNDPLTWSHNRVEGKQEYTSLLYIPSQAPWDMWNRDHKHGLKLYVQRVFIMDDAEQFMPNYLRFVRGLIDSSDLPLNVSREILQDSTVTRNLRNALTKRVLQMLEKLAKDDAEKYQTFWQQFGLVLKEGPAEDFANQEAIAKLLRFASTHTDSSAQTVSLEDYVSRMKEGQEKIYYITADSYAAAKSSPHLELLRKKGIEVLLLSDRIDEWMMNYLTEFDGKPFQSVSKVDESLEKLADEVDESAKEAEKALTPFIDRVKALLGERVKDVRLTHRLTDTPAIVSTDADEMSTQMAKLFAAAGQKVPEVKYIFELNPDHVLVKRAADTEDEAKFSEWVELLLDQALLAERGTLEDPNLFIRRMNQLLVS

- insoluble fraction of α-Syn-E57K after incubation under amyloidogenic conditions with free Hsp90 (18.42% without Hsp90); centrifugation, SDS-PAGE, band quantification: 5.67%
Substance: bacterial Hsp90 chaperone with C-terminal hexahistidine (Hsp90:6xHis) (from UniProt P0A6Z3 1-624) (natural protein)
